From patent US20190077849A1
Where “and” joins values, the source holds several entries; their conditions need not be identical. Equal entries are not always repeated. Where two headings read alike, the source gives them in different places.

Assays:
Test in all cases: cell-based or functional assay
[1] = target: HIV-1 Env of 6101.10.SG3 pseudovirus (clade B) (HIV-1)
[2] = target: HIV-1 Env of TH966.8.SG3 pseudovirus (clade AE) (HIV-1)
[3] = target: HIV-1 Env of CNE31.SG3 pseudovirus (clade C) (HIV-1)
[4] = target: HIV-1 Env of KER2008.12.SG3 pseudovirus (clade A) (HIV-1)
[5] = target: HIV-1 Env of YU2.DG.SG3 pseudovirus (clade B) (HIV-1) (UniProt P35961)
[6] = target: HIV-1 Env of ZM215.8.SG3 pseudovirus (clade C) (HIV-1)
[7] = target: HIV-1 Env of 6095.V1.C10.SG3 pseudovirus (clade ACD) (HIV-1)
[8] = target: HIV-1 Env of PVO.04.SG3 pseudovirus (clade B) (HIV-1)
[9] = target: HIV-1 Env of ZM106.9.SG3 pseudovirus (clade C) (HIV-1)
[10] = target: HIV-1 Env of 6101.10.SG3 pseudovirus (clade B) (HIV-1); remark: listed apart in the source
[11] = target: HIV-1 Env of TH966.8.SG3 pseudovirus (clade AE) (HIV-1); remark: listed apart in the source
[12] = target: HIV-1 Env of CNE31.SG3 pseudovirus (clade C) (HIV-1); remark: listed apart in the source
[13] = target: HIV-1 Env of YU2.DG.SG3 pseudovirus (clade B) (HIV-1) (UniProt P35961); remark: listed apart in the source
[14] = target: HIV-1 Env of ZM215.8.SG3 pseudovirus (clade C) (HIV-1); remark: listed apart in the source
[15] = target: HIV-1 Env of 6095.V1.C10.SG3 pseudovirus (clade ACD) (HIV-1); remark: listed apart in the source
[16] = target: HIV-1 Env of PVO.04.SG3 pseudovirus (clade B) (HIV-1); remark: listed apart in the source

Chain of 10E8v4 S100cW (antibody) (VH): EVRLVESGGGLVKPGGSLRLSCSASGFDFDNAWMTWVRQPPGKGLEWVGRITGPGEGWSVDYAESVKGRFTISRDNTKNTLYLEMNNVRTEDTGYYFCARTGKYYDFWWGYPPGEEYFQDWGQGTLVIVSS
Chain of 10E8v4 S100cW (antibody) (VL): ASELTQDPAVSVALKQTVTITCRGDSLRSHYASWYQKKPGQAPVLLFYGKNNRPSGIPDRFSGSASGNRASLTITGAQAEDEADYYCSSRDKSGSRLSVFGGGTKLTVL

10E8v4 VL Y32T (antibody) was tested. Which IC50, pseudovirus neutralization [1] did it give?
Its IC50, pseudovirus neutralization is > 50 µg/mL.

What about the IC50, pseudovirus neutralization [2] of the same substance?
Its IC50, pseudovirus neutralization is 3.76 µg/mL.

What about the IC50, pseudovirus neutralization [3] of the same substance?
Its IC50, pseudovirus neutralization is > 50 µg/mL.

What about the IC50, pseudovirus neutralization [4] of the same substance?
Its IC50, pseudovirus neutralization is > 50 µg/mL.

What about the IC50, pseudovirus neutralization [5] of the same substance?
Its IC50, pseudovirus neutralization is 43.5 µg/mL.

And the IC50, pseudovirus neutralization [6]?
Its IC50, pseudovirus neutralization is 9.25 µg/mL.

And the IC50, pseudovirus neutralization [7]?
Its IC50, pseudovirus neutralization is 0.145 µg/mL.

And the IC50, pseudovirus neutralization [8]?
The IC50, pseudovirus neutralization was > 50 µg/mL.

And the IC50, pseudovirus neutralization [9]?
Its IC50, pseudovirus neutralization is > 50 µg/mL.

For 10E8v4 VL Y32M (antibody), which IC50, pseudovirus neutralization [1] is on record?
Its IC50, pseudovirus neutralization is > 50 µg/mL.

And the IC50, pseudovirus neutralization [2]?
Its IC50, pseudovirus neutralization is 29.8 µg/mL.

What about the IC50, pseudovirus neutralization [3] of the same substance?
The IC50, pseudovirus neutralization was > 50 µg/mL.

What about the IC50, pseudovirus neutralization [4] of the same substance?
The IC50, pseudovirus neutralization was > 50 µg/mL.

What about the IC50, pseudovirus neutralization [5] of the same substance?
Its IC50, pseudovirus neutralization is > 50 µg/mL.

And the IC50, pseudovirus neutralization [6]?
The IC50, pseudovirus neutralization was > 50 µg/mL.

And the IC50, pseudovirus neutralization [7]?
Its IC50, pseudovirus neutralization is 1.03 µg/mL.

What about the IC50, pseudovirus neutralization [8] of the same substance?
The IC50, pseudovirus neutralization was > 50 µg/mL.

What about the IC50, pseudovirus neutralization [9] of the same substance?
The IC50, pseudovirus neutralization was > 50 µg/mL.

With 10E8v4 VL Y32L (antibody) as the substance, how does the IC50, pseudovirus neutralization [1] read?
Its IC50, pseudovirus neutralization is 38.6 µg/mL.

And the IC50, pseudovirus neutralization [2]?
The IC50, pseudovirus neutralization was 4.26 µg/mL.

And the IC50, pseudovirus neutralization [3]?
The IC50, pseudovirus neutralization was > 50 µg/mL.

And the IC50, pseudovirus neutralization [4]?
The IC50, pseudovirus neutralization was > 50 µg/mL.

What about the IC50, pseudovirus neutralization [5] of the same substance?
The IC50, pseudovirus neutralization was > 50 µg/mL.

And the IC50, pseudovirus neutralization [6]?
Its IC50, pseudovirus neutralization is 8.75 µg/mL.

What about the IC50, pseudovirus neutralization [7] of the same substance?
Its IC50, pseudovirus neutralization is 0.593 µg/mL.

What about the IC50, pseudovirus neutralization [8] of the same substance?
The IC50, pseudovirus neutralization was > 50 µg/mL.

And the IC50, pseudovirus neutralization [9]?
Its IC50, pseudovirus neutralization is > 50 µg/mL.

Which IC50, pseudovirus neutralization [1] does the source give for 10E8v4 VL Y32E (antibody) here?
Its IC50, pseudovirus neutralization is > 50 µg/mL.

And the IC50, pseudovirus neutralization [2]?
The IC50, pseudovirus neutralization was 19 µg/mL.

And the IC50, pseudovirus neutralization [3]?
Its IC50, pseudovirus neutralization is > 50 µg/mL.

And the IC50, pseudovirus neutralization [4]?
The IC50, pseudovirus neutralization was > 50 µg/mL.

What about the IC50, pseudovirus neutralization [5] of the same substance?
Its IC50, pseudovirus neutralization is > 50 µg/mL.

What about the IC50, pseudovirus neutralization [6] of the same substance?
The IC50, pseudovirus neutralization was > 50 µg/mL.

And the IC50, pseudovirus neutralization [7]?
The IC50, pseudovirus neutralization was 0.215 µg/mL.

What about the IC50, pseudovirus neutralization [8] of the same substance?
The IC50, pseudovirus neutralization was > 50 µg/mL.

And the IC50, pseudovirus neutralization [9]?
Its IC50, pseudovirus neutralization is > 50 µg/mL.

What does the source list for 10E8v4 VL Y32W (antibody)?
IC50, pseudovirus neutralization [1]: 0.055 µg/mL; IC50, pseudovirus neutralization [2]: 0.029 µg/mL; IC50, pseudovirus neutralization [3]: 0.719 µg/mL; IC50, pseudovirus neutralization [4]: > 50 µg/mL; IC50, pseudovirus neutralization [5]: 1.07 µg/mL; IC50, pseudovirus neutralization [6]: 0.089 µg/mL; IC50, pseudovirus neutralization [7]: 0.005 µg/mL; IC50, pseudovirus neutralization [8]: 1.4 µg/mL; IC50, pseudovirus neutralization [9]: > 50 µg/mL

How did the IC50, pseudovirus neutralization [2] turn out when 10E8 antibody was run?
The IC50, pseudovirus neutralization was 0.032 µg/mL and 0.023 µg/mL.

And the IC50, pseudovirus neutralization [3]?
The IC50, pseudovirus neutralization was 1.19 µg/mL and 0.995 µg/mL.

And the IC50, pseudovirus neutralization [4]?
Its IC50, pseudovirus neutralization is > 50 µg/mL.

What about the IC50, pseudovirus neutralization [8] of the same substance?
The IC50, pseudovirus neutralization was 2.09 µg/mL and 0.997 µg/mL.

And the IC50, pseudovirus neutralization [9]?
Its IC50, pseudovirus neutralization is > 50 µg/mL.

10E8v4 VL Y32V (antibody) was tested. Which IC50, pseudovirus neutralization [1] did it give?
The IC50, pseudovirus neutralization was > 50 µg/mL.

And the IC50, pseudovirus neutralization [2]?
Its IC50, pseudovirus neutralization is 4.96 µg/mL.

And the IC50, pseudovirus neutralization [3]?
Its IC50, pseudovirus neutralization is > 50 µg/mL.

And the IC50, pseudovirus neutralization [4]?
The IC50, pseudovirus neutralization was > 50 µg/mL.

And the IC50, pseudovirus neutralization [5]?
The IC50, pseudovirus neutralization was > 50 µg/mL.

And the IC50, pseudovirus neutralization [6]?
Its IC50, pseudovirus neutralization is 28.2 µg/mL.

What about the IC50, pseudovirus neutralization [7] of the same substance?
Its IC50, pseudovirus neutralization is 0.558 µg/mL.

And the IC50, pseudovirus neutralization [8]?
Its IC50, pseudovirus neutralization is > 50 µg/mL.

And the IC50, pseudovirus neutralization [9]?
Its IC50, pseudovirus neutralization is > 50 µg/mL.

With 10E8v4 VL Y32P (antibody) as the substance, how does the IC50, pseudovirus neutralization [1] read?
Its IC50, pseudovirus neutralization is > 50 µg/mL.

And the IC50, pseudovirus neutralization [2]?
Its IC50, pseudovirus neutralization is > 50 µg/mL.

What about the IC50, pseudovirus neutralization [3] of the same substance?
Its IC50, pseudovirus neutralization is > 50 µg/mL.

What about the IC50, pseudovirus neutralization [4] of the same substance?
The IC50, pseudovirus neutralization was > 50 µg/mL.

And the IC50, pseudovirus neutralization [5]?
Its IC50, pseudovirus neutralization is > 50 µg/mL.

What about the IC50, pseudovirus neutralization [6] of the same substance?
The IC50, pseudovirus neutralization was > 50 µg/mL.

And the IC50, pseudovirus neutralization [7]?
The IC50, pseudovirus neutralization was 3.2 µg/mL.

And the IC50, pseudovirus neutralization [8]?
The IC50, pseudovirus neutralization was > 50 µg/mL.

And the IC50, pseudovirus neutralization [9]?
The IC50, pseudovirus neutralization was > 50 µg/mL.

What does the source list for 10E8v4 VL Y32Q (antibody)?
IC50, pseudovirus neutralization [1]: > 50 µg/mL; IC50, pseudovirus neutralization [2]: 11.5 µg/mL; IC50, pseudovirus neutralization [3]: > 50 µg/mL; IC50, pseudovirus neutralization [4]: > 50 µg/mL; IC50, pseudovirus neutralization [5]: > 50 µg/mL; IC50, pseudovirus neutralization [6]: > 50 µg/mL; IC50, pseudovirus neutralization [7]: 0.281 µg/mL; IC50, pseudovirus neutralization [8]: > 50 µg/mL; IC50, pseudovirus neutralization [9]: > 50 µg/mL

Which results are given for 10E8v4 S100cW (antibody)?
IC50, pseudovirus neutralization [10]: 0.001 µg/mL; IC80, pseudovirus neutralization [10]: 0.006 µg/mL; IC50, pseudovirus neutralization [11]: 0.001 µg/mL; IC80, pseudovirus neutralization [11]: 0.007 µg/mL; IC50, pseudovirus neutralization [12]: 0.041 µg/mL; IC80, pseudovirus neutralization [12]: 0.149 µg/mL; IC50, pseudovirus neutralization [13]: 0.042 µg/mL; IC80, pseudovirus neutralization [13]: 0.331 µg/mL; IC50, pseudovirus neutralization [14]: 0.001 µg/mL; IC80, pseudovirus neutralization [14]: 0.012 µg/mL; IC50, pseudovirus neutralization [15]: 0.001 µg/mL; IC50, pseudovirus neutralization [16]: 0.088 µg/mL; IC80, pseudovirus neutralization [16]: 0.388 µg/mL; IC50, pseudovirus neutralization [1]: 0.002 µg/mL; IC80, pseudovirus neutralization [1]: 0.01 µg/mL; IC50, pseudovirus neutralization [2]: 0.003 µg/mL; IC80, pseudovirus neutralization [2]: 0.013 µg/mL; IC50, pseudovirus neutralization [3]: 0.107 µg/mL; IC80, pseudovirus neutralization [3]: 0.295 µg/mL; IC50, pseudovirus neutralization [4]: > 50 µg/mL; IC80, pseudovirus neutralization [4]: > 50 µg/mL; IC50, pseudovirus neutralization [5]: 0.031 µg/mL; IC80, pseudovirus neutralization [5]: 0.26 µg/mL; IC50, pseudovirus neutralization [6]: 0.004 µg/mL; IC80, pseudovirus neutralization [6]: 0.025 µg/mL; IC80, pseudovirus neutralization [7]: 0.001 µg/mL; IC50, pseudovirus neutralization [8]: 0.085 µg/mL; IC80, pseudovirus neutralization [8]: 0.459 µg/mL; IC50, pseudovirus neutralization [9]: > 50 µg/mL; IC80, pseudovirus neutralization [9]: > 50 µg/mL
